Laboratory results: IntAct's records for PubMed 23208550

B1: Arrestin domain-containing protein 3 (Homo sapiens), Q96B67 (parent)
chain: MVLGKVKSLTISFDCLNDSNVPVYSSGDTVSGRVNLEVTGEIRVKSLKIHARGHAKVRWTESRNAGSNTAYTQNYTEEVEYFNHKDILIGHERDDDNSEEGFHTIHSGRHEYAFSFELPQTPLATSFEGRHGSVRYWVKAELHRPWLLPVKLKKEFTVFEHIDINTPSLLSPQAGTKEKTLCCWFCTSGPISLSAKIERKGYTPGESIQIFAEIENCSSRMVVPKAAIYQTQAFYAKGKMKEVKQLVANLRGESLSSGKTETWNGKLLKIPPVSPSILDCSIIRVEYSLMVYVDIPGAMDLFLNLPLVIGTIPLHPFGSRTSSVSSQCSMNMNWLSLSLPERPEAPPSYAEVVTEEQRRNNLAPVSACDDFERALQGPLFAYIQEFRFLPPPLYSEIDPNPDQSADDRPSCPSR

Key:
[1] = variants of: B1; settings: with nedd4_human NEDD4, P46934
[2] = variants of: B1; settings: with hgs_human HGS
[3] = variants of: B1; settings: with adrb2_human ADRB2, P07550
[4] = variants of: B1; settings: with adrb2_human ADRB2, P07550; remark: listed apart in the source

Chain of nedd4_human NEDD4, P46934 (P46934 whole entry): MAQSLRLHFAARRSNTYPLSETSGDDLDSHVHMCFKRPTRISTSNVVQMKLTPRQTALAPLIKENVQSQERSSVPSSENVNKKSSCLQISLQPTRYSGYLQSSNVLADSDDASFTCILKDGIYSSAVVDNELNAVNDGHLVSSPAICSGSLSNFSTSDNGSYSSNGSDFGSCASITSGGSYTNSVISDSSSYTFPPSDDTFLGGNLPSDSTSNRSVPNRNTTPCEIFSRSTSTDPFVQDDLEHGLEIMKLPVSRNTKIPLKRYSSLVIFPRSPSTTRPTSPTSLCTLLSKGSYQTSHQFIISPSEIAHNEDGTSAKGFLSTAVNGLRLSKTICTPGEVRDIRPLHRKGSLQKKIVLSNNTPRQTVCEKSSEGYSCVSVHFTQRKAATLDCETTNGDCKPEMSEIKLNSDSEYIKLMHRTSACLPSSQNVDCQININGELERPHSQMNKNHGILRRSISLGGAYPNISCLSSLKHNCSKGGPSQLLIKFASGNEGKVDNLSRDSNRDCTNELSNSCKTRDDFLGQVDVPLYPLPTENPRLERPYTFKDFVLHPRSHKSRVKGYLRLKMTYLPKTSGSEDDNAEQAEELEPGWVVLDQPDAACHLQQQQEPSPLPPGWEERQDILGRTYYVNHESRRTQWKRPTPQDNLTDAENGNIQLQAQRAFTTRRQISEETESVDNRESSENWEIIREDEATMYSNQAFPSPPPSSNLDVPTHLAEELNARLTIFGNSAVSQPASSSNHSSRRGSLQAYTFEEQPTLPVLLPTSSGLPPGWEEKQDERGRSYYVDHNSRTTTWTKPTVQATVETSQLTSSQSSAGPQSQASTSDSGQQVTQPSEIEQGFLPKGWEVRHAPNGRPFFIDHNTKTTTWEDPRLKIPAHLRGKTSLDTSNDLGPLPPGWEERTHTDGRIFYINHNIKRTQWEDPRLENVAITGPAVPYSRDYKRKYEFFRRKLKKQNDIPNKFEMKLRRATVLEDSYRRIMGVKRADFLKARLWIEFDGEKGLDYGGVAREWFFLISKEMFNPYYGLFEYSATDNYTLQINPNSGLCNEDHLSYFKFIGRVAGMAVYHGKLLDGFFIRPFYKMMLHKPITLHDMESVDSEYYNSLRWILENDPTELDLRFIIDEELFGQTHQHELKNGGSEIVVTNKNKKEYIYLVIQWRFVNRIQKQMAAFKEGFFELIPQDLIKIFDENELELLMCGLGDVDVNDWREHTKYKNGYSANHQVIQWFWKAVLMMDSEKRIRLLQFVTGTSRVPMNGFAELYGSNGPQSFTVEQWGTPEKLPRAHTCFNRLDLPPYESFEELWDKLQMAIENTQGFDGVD

| effect of a mutation on the interaction [1] | effect of a mutation on the interaction [2] | effect of a mutation on the interaction [3] | effect of a mutation on the interaction [4] | Variant |
| --- | --- | --- | --- | --- |
| disrupting interaction | disrupting interaction | decreasing interaction | disrupting interaction | P392A |
| disrupting interaction | disrupting interaction | decreasing interaction | disrupting interaction | P391A |
| disrupting interaction | disrupting interaction | decreasing interaction | disrupting interaction | Y349A |
| disrupting interaction | disrupting interaction | decreasing interaction | disrupting interaction | P346A |
| disrupting interaction | disrupting interaction | decreasing interaction | disrupting interaction | Y394A |
| disrupting interaction | disrupting interaction | decreasing interaction | disrupting interaction | P347A |
